Measurements as given in patent US20150056630A1, “DNA CONTROLLING MIR-140 EXPRESSION, AND SCREENING METHOD OF DRUGS USING SAID DNA” (NATIONAL CENTER FOR CHILD HEALTH AND DEVELOPMENT, priority 2012, published 2015).

What was measured:
[1] = target: T1, Sox9 (recombinant, rSox9) (UniProt Q04887 Q04887:1-507); experiment: EMSA; 0.1 ug rSox9, poly dG-dC, 50 mM KCl, room temperature; supershift with anti-Sox9; conditions: label: 32P
Method: (§1) To a reaction solution containing 20 mmol/L of HEPES (pH 7.9), 10% of glycerol, 50 mmol/L of KCl, 0.05% of NP-40, 0.5 mmol/L of EDTA, 0.5 mmol/L of DTT, 1 mmol/L of PMSF and 0.25 μg of Poly dG-dC was/were appropriately added 0.1 μg of a recombinant Sox9 (rSox9) and/or an anti-Sox9 antibody (manufactured by Millipore Corporation) followed by incubating at room temperature for 30 minutes. After that, the above RI-labeled probe was added, incubated at room temperature for 30 minutes and subjected to 4% polyacrylamide gel electrophoresis. After the electrophoresis, RI was detected using FLA-7000 (manufactured by Fujifilm) which is an image analysis apparatus.

[2] = target: T2, recombinant Sox9 (rSox9) (Homo sapiens, UniProt P48436); experiment: Electrophoretic mobility shift assay (EMSA), Sox9 binding of RI-labeled probes; conditions: for shift of the band: incubation with rSox9
T2 sequence (P48436 1-509): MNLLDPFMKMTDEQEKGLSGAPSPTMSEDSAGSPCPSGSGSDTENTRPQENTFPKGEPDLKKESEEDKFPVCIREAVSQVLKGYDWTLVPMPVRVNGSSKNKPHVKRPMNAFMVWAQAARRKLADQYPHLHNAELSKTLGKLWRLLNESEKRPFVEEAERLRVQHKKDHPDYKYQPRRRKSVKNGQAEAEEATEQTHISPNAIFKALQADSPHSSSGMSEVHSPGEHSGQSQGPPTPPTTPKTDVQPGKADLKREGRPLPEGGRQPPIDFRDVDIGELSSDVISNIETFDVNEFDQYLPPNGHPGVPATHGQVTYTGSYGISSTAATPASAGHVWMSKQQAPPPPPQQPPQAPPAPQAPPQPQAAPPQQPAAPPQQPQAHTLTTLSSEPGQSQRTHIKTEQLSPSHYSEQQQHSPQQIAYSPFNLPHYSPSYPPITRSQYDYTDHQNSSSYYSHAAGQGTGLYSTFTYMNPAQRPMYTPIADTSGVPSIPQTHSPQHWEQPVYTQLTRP
Method: To a reaction solution comprising 1× Protruding End Kinase buffer, 0.4 μmol/L of sense oligo or antisense oligo and 1 U of T4 Polynucleotide Kinase (manufactured by Toyobo Co., Ltd.) was added P^32 γATP followed by subjecting to a reaction at 37° C. for 1 hour. The sense oligo and the antisense oligo finishing each of their reactions were mixed, incubated at 99° C. for 10 seconds and gradually returned to room temperature during 1 hour to prepare a double-stranded DNA labeled with radioisotope (RI). The RI-labeled probe was used after purifying by PrbeQuant G-50 Micro Column.
as §1

[3] = target: T1, Sox9 (recombinant, rSox9); experiment: EMSA; right-side half-site mutated; shift disappeared; conditions: label: 32P
Method: as §1

[4] = target: T1, Sox9 (recombinant, rSox9); experiment: EMSA; left-side half-site mutated; shift still observed; conditions: label: 32P
Method: as §1

[5] = target: T1, Sox9 (recombinant, rSox9); experiment: EMSA; both sides mutated; shift disappeared; conditions: label: 32P
Method: as §1

B1: miR140-PSB probe (dsDNA)
DNA 1: CTGGACTGAGCCCCATTCATCGTCCTGCTGCT
DNA 2: AGCAGCAGGACGATGAATGGGGCTCAGTCCAG
binding result [1]: binds

B2: miR-140-PSB-mut1: RI-labeled probe, SEQ ID Nos. 30/31, mutation in the right side of the palindromic Sox9 binding sequence (nucleic acid)
chain 1: CTGGACTGAGCCCCAGGCATCGTCCTGCTGCT
chain 2: AGCAGCAGGACGATGCCTGGGGCTCAGTCCAG
modifications: DNA, backbone and methylation of C not given here; radioisotope-labeled double-stranded DNA probe, further chemistry not fully specified
shift of the band [2]: shift of the band disappeared

B3: miR140-PSB-mut1 probe (dsDNA)
DNA 1: CTGGACTGAGCCCCAGGCATCGTCCTGCTGCT
DNA 2: AGCAGCAGGACGATGCCTGGGGCTCAGTCCAG
binding result [3]: no binding

B4: miR-140-PSB-mut2: RI-labeled probe, SEQ ID Nos. 32/33, mutation in the left side of the palindromic Sox9 binding sequence (nucleic acid)
chain 1: CTGGGTTGGGCCCCATTCATCGTCCTGCTGCT
chain 2: AGCAGCAGGACGATGAATGGGGCCCAACCCAG
modifications: DNA, backbone and methylation of C not given here; radioisotope-labeled double-stranded DNA probe, further chemistry not fully specified
shift of the band [2]: shift of the band was observed

B5: miR140-PSB-mut2 probe (dsDNA)
DNA 1: CTGGGTTGGGCCCCATTCATCGTCCTGCTGCT
DNA 2: AGCAGCAGGACGATGAATGGGGCCCAACCCAG
binding result [4]: binds

B6: miR-140-PSB: RI-labeled double-stranded DNA probe, SEQ ID Nos. 28/29, palindromic Sox9 binding sequence (Table 3: miR140-PSB) (nucleic acid)
chain 1: CTGGACTGAGCCCCATTCATCGTCCTGCTGCT
chain 2: AGCAGCAGGACGATGAATGGGGCTCAGTCCAG
modifications: DNA, backbone and methylation of C not given here; radioisotope-labeled double-stranded DNA probe, further chemistry not fully specified
shift of the band [2]: shift of the band was observed | supershift of the band ([2]; rSox9 and further incubation with anti-Sox9 antibody): supershift of the band was observed

B7: miR140-PSB-mut3 probe (dsDNA)
DNA 1: CTGGGTTGGGCCCCAGGCATCGTCCTGCTGCT
DNA 2: AGCAGCAGGACGATGCCTGGGGCCCAACCCAG
binding result [5]: no binding

B8: miR-140-PSB-mut3: RI-labeled probe, SEQ ID Nos. 34/35, mutation in both sides of the palindromic Sox9 binding sequence (nucleic acid)
chain 1: CTGGGTTGGGCCCCAGGCATCGTCCTGCTGCT
chain 2: AGCAGCAGGACGATGCCTGGGGCCCAACCCAG
modifications: DNA, backbone and methylation of C not given here; radioisotope-labeled double-stranded DNA probe, further chemistry not fully specified
shift of the band [2]: shift of the band disappeared
